For experiment [1], the target named is BG505 SOSIP.664 trimer+sCD4 complex (HIV-1 strain BG505; human) (UniProt P01730). Put plainly: SPR read-out on captured 3074 IgG of trimer incubated with sCD4.
Experiment [2] has as its target BG505.SOSIP.664.201C-433C HIV-1 Env ectodomain trimer (HIV-1 strain BG505). Put plainly: SPR, single-cycle kinetics.

On to 3074 antibody, for which the t1/2 of CD4-induced appearance of binding in experiment [1] was determined as 4.2 h.
Turning to “soluble CD4 (sCD4) (from UniProt P01730 26-208) (receptor)”, in experiment [2], the fold faster off-rate relative to parent SOSIP.664 worked out at 10 fold and the fold reduction in KD (affinity) relative to SOSIP.664 amounted to 10 fold.

For the origin of these results see US20230227512A1.
